Source: PMC9482650, “Quantitative fragmentomics allow affinity mapping of interactomes” (Nature Communications, 2022)

Key:
Test in all cases: holdup assay
Set-up in all cases: key: below the threshold = too weak to quantify, mostly under pKd 3.1 to 4
Settings in all cases: plain residues with an end cap or a label only (N-terminal biotin on a linker: ttds)
DVL1, O14640 = biological target: T1, DVL1, O14640
T1 sequence (O14640 246-333, limits assumed, looked up): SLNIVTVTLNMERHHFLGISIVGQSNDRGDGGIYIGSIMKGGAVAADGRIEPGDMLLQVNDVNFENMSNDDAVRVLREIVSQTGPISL

DVL2, O14641 = biological target: DVL2, O14641
Sequence of DVL2, O14641 (O14641 260-359): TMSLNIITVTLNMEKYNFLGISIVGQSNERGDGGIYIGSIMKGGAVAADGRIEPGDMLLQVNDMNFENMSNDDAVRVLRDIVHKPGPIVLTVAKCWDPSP

GIPC1, O14908 = biological target: T2, GIPC1, O14908
T2 sequence (O14908 128-223, limits assumed, looked up): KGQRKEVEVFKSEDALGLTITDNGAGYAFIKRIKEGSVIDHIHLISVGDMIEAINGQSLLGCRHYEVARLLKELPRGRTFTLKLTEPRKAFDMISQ

GRIP1_1, Q9Y3R0 = biological target: T3, GRIP1_1, Q9Y3R0
T3 sequence (Q9Y3R0 48-146, limits assumed, looked up): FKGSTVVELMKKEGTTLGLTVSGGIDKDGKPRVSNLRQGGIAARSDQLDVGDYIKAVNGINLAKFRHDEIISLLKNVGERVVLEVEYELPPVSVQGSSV

LNX2_4, Q8N448 = biological target: T4, LNX2_4, Q8N448
T4 sequence (Q8N448 595-690, limits assumed, looked up): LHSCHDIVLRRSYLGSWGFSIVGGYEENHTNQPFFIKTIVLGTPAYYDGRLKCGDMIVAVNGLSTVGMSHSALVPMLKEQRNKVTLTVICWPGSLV

MAGI1_6, Q96QZ7 = biological target: MAGI1_6, Q96QZ7
Sequence of MAGI1_6, Q96QZ7 (Q96QZ7 1146-1238): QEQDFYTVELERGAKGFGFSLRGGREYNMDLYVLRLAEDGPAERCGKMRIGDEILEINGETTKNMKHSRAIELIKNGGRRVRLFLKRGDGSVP

MAGI3_5, Q5TCQ9 = biological target: MAGI3_5, Q5TCQ9
Sequence of MAGI3_5, Q5TCQ9 (Q5TCQ9 847-941): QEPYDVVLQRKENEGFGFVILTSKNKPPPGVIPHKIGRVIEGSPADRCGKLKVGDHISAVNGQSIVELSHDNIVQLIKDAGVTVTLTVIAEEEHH

MAST3, O60307 = biological target: MAST3, O60307
Sequence of MAST3, O60307 (O60307 945-1048): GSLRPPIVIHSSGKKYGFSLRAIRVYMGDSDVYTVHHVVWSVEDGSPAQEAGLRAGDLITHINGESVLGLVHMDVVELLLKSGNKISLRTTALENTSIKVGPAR

MPP1, Q00013 = biological target: T5, MPP1, Q00013
T5 sequence (Q00013 66-162, limits assumed, looked up): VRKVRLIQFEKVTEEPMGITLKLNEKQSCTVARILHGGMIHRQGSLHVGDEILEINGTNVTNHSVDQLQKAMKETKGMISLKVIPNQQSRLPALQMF

PARD3_1, Q8TEW0 = biological target: PARD3_1, Q8TEW0
Sequence of PARD3_1, Q8TEW0 (Q8TEW0 264-372): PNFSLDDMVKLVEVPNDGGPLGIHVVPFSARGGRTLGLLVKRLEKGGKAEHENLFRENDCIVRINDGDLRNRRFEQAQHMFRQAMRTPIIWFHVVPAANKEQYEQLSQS

PARD6B, Q9BYG5 = biological target: T6, PARD6B, Q9BYG5
T6 sequence (Q9BYG5 152-260, limits assumed, looked up): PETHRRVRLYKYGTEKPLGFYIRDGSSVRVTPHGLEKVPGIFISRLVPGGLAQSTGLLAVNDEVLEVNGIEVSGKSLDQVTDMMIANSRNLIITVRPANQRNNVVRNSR

PDZD2_6, O15018 = biological target: T7, PDZD2_6, O15018
T7 sequence (O15018 2745-2839, limits assumed, looked up): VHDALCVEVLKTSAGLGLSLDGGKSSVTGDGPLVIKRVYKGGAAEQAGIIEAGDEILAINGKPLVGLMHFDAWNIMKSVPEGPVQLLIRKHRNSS

PDZD4, Q76G19 = biological target: T8, PDZD4, Q76G19
T8 sequence (Q76G19 125-224, limits assumed, looked up): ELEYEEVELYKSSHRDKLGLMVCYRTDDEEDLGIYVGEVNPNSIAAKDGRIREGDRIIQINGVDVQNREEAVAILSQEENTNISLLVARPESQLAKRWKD

PDZD7_1, Q9H5P4 = biological target: T9, PDZD7_1, Q9H5P4
T9 sequence (Q9H5P4 81-178, limits assumed, looked up): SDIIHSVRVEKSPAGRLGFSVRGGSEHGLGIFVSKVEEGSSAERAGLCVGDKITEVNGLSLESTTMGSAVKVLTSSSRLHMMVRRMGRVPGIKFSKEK

PDZD8, Q8NEN9 = biological target: T10, PDZD8, Q8NEN9
T10 sequence (Q8NEN9 361-459, limits assumed, looked up): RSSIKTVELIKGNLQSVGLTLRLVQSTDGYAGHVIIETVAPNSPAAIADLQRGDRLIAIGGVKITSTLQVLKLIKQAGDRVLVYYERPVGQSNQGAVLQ

PDZD9, Q8IXQ8 = biological target: PDZD9, Q8IXQ8
Sequence of PDZD9, Q8IXQ8 (Q8IXQ8 23-120): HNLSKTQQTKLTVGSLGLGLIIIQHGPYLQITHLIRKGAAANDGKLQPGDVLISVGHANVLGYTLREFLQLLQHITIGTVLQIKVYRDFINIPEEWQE

PREX1_1, Q8TCU6 = biological target: PREX1_1, Q8TCU6
Sequence of PREX1_1, Q8TCU6 (Q8TCU6 608-718): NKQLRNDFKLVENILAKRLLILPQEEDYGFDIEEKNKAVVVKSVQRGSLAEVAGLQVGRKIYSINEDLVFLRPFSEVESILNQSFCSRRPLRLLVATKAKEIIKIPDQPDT

PREX2_2, Q70Z35 = biological target: T11, PREX2_2, Q70Z35
T11 sequence (Q70Z35 672-764, limits assumed, looked up): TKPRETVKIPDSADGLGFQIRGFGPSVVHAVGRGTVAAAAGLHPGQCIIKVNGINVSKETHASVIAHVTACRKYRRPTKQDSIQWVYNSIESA

PTPN13_5, Q12923 = biological target: T12, PTPN13_5, Q12923
T12 sequence (Q12923 1877-1975, limits assumed, looked up): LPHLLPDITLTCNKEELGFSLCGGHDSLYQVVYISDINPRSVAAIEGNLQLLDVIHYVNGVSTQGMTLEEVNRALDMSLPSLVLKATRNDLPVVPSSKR

Q13009 = biological target: Q13009
Q13368 = biological target: Q13368
Q9H190 = biological target: Q9H190
SHROOM2, Q13796 = biological target: T13, SHROOM2, Q13796
T13 sequence (Q13796 21-118, limits assumed, looked up): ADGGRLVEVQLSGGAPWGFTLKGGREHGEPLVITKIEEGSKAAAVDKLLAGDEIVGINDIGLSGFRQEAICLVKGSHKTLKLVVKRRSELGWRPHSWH

SNTB2, Q13425 = biological target: T14, SNTB2, Q13425
T14 sequence (Q13425 110-208, limits assumed, looked up): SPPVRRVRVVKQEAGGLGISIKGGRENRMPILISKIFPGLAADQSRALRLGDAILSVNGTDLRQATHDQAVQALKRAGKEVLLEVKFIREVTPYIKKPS

Row | Binder | pKd (DVL1, O14640) | pKd (DVL2, O14641) | pKd (GIPC1, O14908) | pKd (GRIP1_1, Q9Y3R0) | pKd (LNX2_4, Q8N448) | pKd (MAGI1_6, Q96QZ7) | pKd (MAGI3_5, Q5TCQ9) | pKd (MAST3, O60307) | pKd (MPP1, Q00013) | pKd (PARD3_1, Q8TEW0) | pKd (PARD6B, Q9BYG5) | pKd (PDZD2_6, O15018) | pKd (PDZD4, Q76G19) | pKd (PDZD7_1, Q9H5P4) | pKd (PDZD8, Q8NEN9) | pKd (PDZD9, Q8IXQ8) | pKd (PREX1_1, Q8TCU6) | pKd (PREX2_2, Q70Z35) | pKd (PTPN13_5, Q12923) | pKd (SHROOM2, Q13796) | further results
1 | PPRQRSETQV [HPV82-E6, Q9IR59] | below the threshold | below the threshold | 4.27 | below the threshold | below the threshold | 4.21 | below the threshold | below the threshold | 5.75 | below the threshold | below the threshold | below the threshold | below the threshold | below the threshold | below the threshold | below the threshold | below the threshold | below the threshold | below the threshold | below the threshold | pKd (Q13009): below the threshold; pKd (Q13368): below the threshold; pKd (Q9H190): below the threshold; pKd (SNTB2, Q13425): below the threshold
2 | SRSRRRETAL [HPV33-E6, P06427] | 4.23 | below the threshold | below the threshold | below the threshold | below the threshold | below the threshold | below the threshold | below the threshold | 4.79 | below the threshold | below the threshold | below the threshold | below the threshold | below the threshold | below the threshold | below the threshold | below the threshold | below the threshold | below the threshold | below the threshold | pKd (SNTB2, Q13425): 4.56
3 | SSIDLWETAL [SLC15A5, A6NIM6] | below the threshold | below the threshold | below the threshold | below the threshold | 5.03 | 5.18 | 5.57 | 4.91 | below the threshold | below the threshold | below the threshold | below the threshold | below the threshold | 4.95 | below the threshold | below the threshold | below the threshold | below the threshold | 4.86 | 5.76 | pKd (Q13009): below the threshold; pKd (Q13368): below the threshold; pKd (Q9H190): below the threshold; pKd (SNTB2, Q13425): 5.54
4 | SHSSKGETAV [FZD7, O75084] | below the threshold | below the threshold | 4.44 | below the threshold | below the threshold | 4.7 | below the threshold | below the threshold | 4.85 | below the threshold | below the threshold | below the threshold | below the threshold | below the threshold | below the threshold | below the threshold | below the threshold | 4.3 | below the threshold | below the threshold | pKd (Q13009): below the threshold; pKd (Q13368): below the threshold; pKd (Q9H190): below the threshold; pKd (SNTB2, Q13425): below the threshold
5 | KLVIKTETTV [RASSF6, Q6ZTQ3] | below the threshold | below the threshold | 4.57 | below the threshold | below the threshold | below the threshold | below the threshold | below the threshold | 5.13 | below the threshold | below the threshold | below the threshold | below the threshold | below the threshold | below the threshold | below the threshold | 4.1 | below the threshold | below the threshold | below the threshold | pKd (Q13009): below the threshold; pKd (Q13368): below the threshold; pKd (Q9H190): below the threshold; pKd (SNTB2, Q13425): 4.2
6 | SGGKRKETLV [NET1, Q7Z628] | below the threshold | below the threshold | 4.28 | below the threshold |  | below the threshold | 3.72 | below the threshold | below the threshold | below the threshold | below the threshold | below the threshold | 3.72 | below the threshold | below the threshold | below the threshold | below the threshold | 3.79 | below the threshold | below the threshold | 
